± gives the standard deviation of the averaged measurements.
System: ATP
Experiment: switch fluorescence ratio, 500 uM ATP over buffer (Cy3 cluster intensity, sum of 5 cycles each) (fold (ratio)); higher = stronger signal-on switching upon ATP binding; sequences stand for … in TCGTCGGCAGCGTCAGATGTGTATAAGAGACAGTTTTTTTTTTTTTTTTTTTTTTTTT…TC
Conditions: aptamer strand: ATP DNA aptamer (quencher-CACCTGGGGGAGTATTGCGGAGGAAGG + anchor), 100 nM annealed; ATP concentration: 500 uM
Method in brief: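 The quencher-labelled ATP aptamer, at 100 nM, was annealed to Cy3-labelled switching-strand clusters on a modified Illumina MiSeq flow-cell. The clusters were imaged in selection buffer, then after 15 min with 500 uM ATP at 22 °C, and this buffer/ATP cycle ran five times with NaOH stripping and re-annealing between runs. Per-cluster fluorescence ratios, summed target-cycle over summed buffer-cycle Cy3 intensity, were averaged per switch-domain sequence. Clusters outside 100-1000 RFU were excluded.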
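Note: ATP exposure 15 min at 22 °C before imaging.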

Sequence | switch fluorescence ratio
CCCGGGTATG | 1.03 ± 0.02
ATTTTGCCGT | 1.02 ± 0.027
ATGGCTTGTC | 1.03 ± 0.038
AAACATGGAG | 1 ± 0.019
GTGGGGGTGT | 1.05 ± 0.055
TAATGTGGTT | 0.989 ± 0.033
GAGTTTTGAG | 1 ± 0.011
CGCTTTTGGA | 1 ± 0.036
CAGTACTGGT | 0.99384 ± 0.00024
TGGGATGTTC | 0.989 ± 0.031
TAAGGGCAAA | 1.02 ± 0.032
TCGTTGGTCC | 1.026 ± 0.0048
TCTTTGAAGT | 1 ± 0.019
AATAATCAGG | 0.9926 ± 0.0086
TTTTATGAAG | 1.04 ± 0.02
TGGTTGCAGG | 1.05 ± 0.042
TGTTTCGTGG | 0.971 ± 0.02
TTATTGTGCG | 1.03 ± 0.034
TATATTACGA | 1.03 ± 0.013
TTTTAGTTGG | 0.954 ± 0.038
ACTATCGGGA | 1.02 ± 0.037
GGGCTATCCG | 0.983 ± 0.024
GGCGGGAGGA | 1.02 ± 0.025

Sequence | switch fluorescence ratio
TATTGACATT | 1.016 ± 0.0071
CATTAATTTG | 1.01 ± 0.012
ATGGGAAGTC | 0.992 ± 0.024
AAAGTACTCG | 1.12 ± 0.0043
TTCTGGTTTT | 0.9727 ± 0.0026
AGAGTTAACG | 0.97158 ± 0.00066
TAATTAGAGT | 0.967 ± 0.046
CGAGGGGTAC | 1.4 ± 0.0095
CCGGGAGTAC | 2.14 ± 0.55
ACAGGGGCCA | 0.999 ± 0.011
CGGTCATACT | 1.21 ± 0.029
TGCGGAGGTT | 1.019 ± 0.0037
AGTAAGATGT | 0.976 ± 0.034
AGAGGTGGGG | 0.968 ± 0.012
TGATCGGGCG | 1.04 ± 0.02
TTCTTCGGAT | 1.09 ± 0.11
CAATAGATGG | 0.999 ± 0.016
ATAGGGCAGC | 1.03 ± 0.04
TGTAGCAGGG | 1.12 ± 0.043
GGGTGCATGT | 0.99 ± 0.02
GAGTTATTCG | 1.02 ± 0.023
ACGAGGGTGG | 1.065 ± 0.0084
GGGTTTGGGT | 1.01 ± 0.053

Sequence | switch fluorescence ratio
GGGGGTGAAA | 0.987 ± 0.011
AGGGTTATTC | 1 ± 0.013
GTAGCCCGGG | 0.993 ± 0.026
TTATACAGTG | 1 ± 0.031
CAATTTACGG | 1.1 ± 0.036
AAAGGGCAAT | 1.14 ± 0.18
ATTTTGGTTT | 0.989 ± 0.025
GCACTGGTAA | 1.023 ± 0.0071
TTTTAAGTCT | 1.02 ± 0.0036
TGAGGTTTGA | 0.986 ± 0.02
ATAACCGTAC | 2.46 ± 0.27
TCTGGGTTAT | 0.988 ± 0.033
GACTATAGAT | 1.05 ± 0.034
TTATGCTGTT | 1 ± 0.011
AATATTTGG | 1.008 ± 0.0091
ATGTGTCGCG | 0.9917 ± 0.0045
GGCAACGAAA | 1.039 ± 0.0099
CAAGGTTATA | 1 ± 0.022
TGCTGAGTAG | 0.9785 ± 0.0036
TCCGTCACTA | 1.438 ± 0.0074
GCAGCAATTG | 3.03 ± 0.19
TTTTGTTTGT | 1.01 ± 0.037
AGACAGTAGG | 1.03 ± 0.03

Sequence | switch fluorescence ratio
TATTTGCGCG | 0.967 ± 0.037
TGTGAGGCGC | 1 ± 0.044
CGGGAAAAAG | 1.08 ± 0.11
ACTAGCTTGT | 1.04 ± 0.026
GAATTAAGCT | 1 ± 0.015
AAAGGGTGAG | 0.9726 ± 0.0064
TGGGCCTATT | 0.976 ± 0.063
GGTGCTTGGT | 0.989 ± 0.018
TTGACGCGTG | 0.982 ± 0.023
AGGAGAGGTG | 1.102 ± 0.002
GGCTAAAGCG | 0.974 ± 0.012
TTTGGGGTTT | 1.07 ± 0.24
GTTGTTATCG | 0.993 ± 0.028
CGGAACTGAA | 1.02 ± 0.072
GGCGTGTTGG | 1.02 ± 0.045
CGGGGCTTAG | 1.0342 ± 0.00025
TCGAGTATCT | 0.999 ± 0.019
ACCGGACATG | 1.07 ± 0.034
TGGGGAGGCA | 0.97516 ± 0.00042
CGTGGTTGAG | 0.976 ± 0.018
GGAAGTGGTC | 1.01 ± 0.059
GGGTGTATTT | 1.02 ± 0.011
GAGCTACGTA | 1.04 ± 0.026

Sequence | switch fluorescence ratio
CGCAGATTCG | 1.01 ± 0.024
AGTAACAGTA | 1 ± 0.037
TTGGGGGCAA | 1.57 ± 0.84
CCGGTTTTTA | 0.996 ± 0.01
CGATGCTGGT | 1.02 ± 0.053
GTTTGCGTTG | 0.979 ± 0.042
CACGGGCTTC | 1.016 ± 0.0084
TTTTATGAAA | 0.997 ± 0.012
TTATGGCGGT | 1.063 ± 0.0057
TAGCCGGGGA | 1.01 ± 0.032
ATGAGGGGCT | 0.986 ± 0.037
CGTCGGGGGG | 1.008 ± 0.008
CAAGTATGGG | 0.974 ± 0.035
TGTGTATGGT | 1.01 ± 0.022
TGGGGGTCCT | 1.01 ± 0.031
TATAACCAGG | 1.33 ± 0.086
GGTGTAAGAA | 1.002 ± 0.0085
ACCAGTGGGC | 1.04 ± 0.049
TTTCATCTTT | 1.04 ± 0.078
TGATGTTTGA | 0.9947 ± 0.0094
TTTAAGAGAT | 0.998 ± 0.028
TTGATTCTGA | 0.992 ± 0.034
TAGGGAGCCT | 0.964 ± 0.016

Sequence | switch fluorescence ratio
ACCAAATTCA | 1.04 ± 0.0087
CGGTCGCTTG | 1.02 ± 0.032
CTGGCAACGA | 1.06 ± 0.013
GGGTTTACTG | 1 ± 0.022
AAATGCTAGC | 1.01 ± 0.039
GTGGGATAAA | 0.969 ± 0.011
ATAGGATAGT | 0.976 ± 0.015
ACATGTAGAG | 1 ± 0.0056
TAGAAATGGG | 1.19 ± 0.33
AGGGGAAGAA | 1 ± 0.019
TGTAGAGCCA | 1.03 ± 0.035
AGGGGGTTCC | 0.99 ± 0.033
TGCTCGGCGT | 0.99846 ± 0.00041
GGGGGAGGCC | 1.02 ± 0.056
AGTCTCTCAT | 0.992 ± 0.03
TTTTTAAGAG | 1 ± 0.014
CTAATTGTAG | 0.9884 ± 0.0029
TGCCCCGCCT | 0.996 ± 0.044
AAGTAGTCCC | 1.3 ± 0.39
ATATTGGGAG | 0.99 ± 0.025
TGAATTCTTT | 0.968 ± 0.041
TACGAGGGTG | 1.06 ± 0.034
CGGCGGGGAG | 1 ± 0.044

Sequence | switch fluorescence ratio
TTGATTGAGG | 1 ± 0.017
GTTTGTATAG | 1 ± 0.03
TTGTACGCCC | 1.24 ± 0.2
ATGGAATTTG | 0.98 ± 0.0098
TTATCCGAGA | 1.04 ± 0.019
CCAATGGATA | 1.03 ± 0.02
CGTGCACCGG | 1 ± 0.031
GTGGGGAGGG | 1 ± 0.016
TGTTGTGTGT | 0.985 ± 0.028
ACGGTTGTTC | 1.027 ± 0.005
TAAAGGGGAA | 1.01 ± 0.047
CTCGCCGGGG | 1.06 ± 0.013
TTCAGGTGGC | 1.18 ± 0.17
CGCTTTGTGT | 0.973 ± 0.032
GGGAAGGTGT | 1.1 ± 0.11
TTTCAACGGT | 1.009 ± 0.0075
TCGGAAGTCA | 1.012 ± 0.0042
GGGCGAGGGG | 1.01 ± 0.026
TTGGGATTGG | 0.968 ± 0.018
